Assay [1] deals with T1, mouse CACNG1 on myofibers of wildtype mice (mouse, UniProt O70578 1-223).
T1 construct: whole, on cells; Target inferred from the cells: the wildtype myofibers carry mouse CACNG1, which the CACNG1^Hu/Hu mice have replaced by human CACNG1; also called wildtype (WT) myofibers
T1 sequence (looked up): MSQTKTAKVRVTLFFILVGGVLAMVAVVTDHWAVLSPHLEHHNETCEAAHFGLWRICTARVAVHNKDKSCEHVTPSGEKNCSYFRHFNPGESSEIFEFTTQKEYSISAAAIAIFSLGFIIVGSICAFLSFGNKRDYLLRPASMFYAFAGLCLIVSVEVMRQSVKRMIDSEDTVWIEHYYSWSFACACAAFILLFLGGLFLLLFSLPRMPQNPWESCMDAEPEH
The assay can be described thus: immunofluorescence on live single myofibers ex vivo (wildtype mice), fluorescent secondary antibody, confocal imaging. On the procedure: Single myofibers were isolated from either wildtype mice, mice that were homozygous for the deletion of CACNG1 (referred to as CACNG1 knockout mice), or mice that were homozygous for the expression of human CACNG1 in place of mouse CACNG1 (referred to as CACNG1^{Hu/Hu}). The gastrocnemius muscle was removed, collagenase digested, and single myofibers were isolated, washed, and incubated overnight at 37° C. at 5% C02, in DMEM+10% horse serum. […] Myofibers were then washed twice in DMEM+10% horse serum, and subsequently incubated with 10 ug/mL of fluorescent-conjugated secondary antibodies for 30 minutes, washed twice in DMEM+10% horse serum, and then fixed with 4% paraformaldehyde (PFA) for 15 minutes at room temperature. Single fibers were then washed twice with PBS, stained with Hoechst for 5 minutes, washed once more with PBS, then transferred to microscope slides, coverslipped, and imaged using a Zeiss LSM 710 confocal microscope.

Assay [2] deals with T2, human CACNG1, cell surface-expressed (human, UniProt Q06432 1-222). The assay can be described thus: cell-based or functional assay.
Assay [3] deals with T2, human CACNG1, cell surface-expressed. The assay can be described thus: cell-based or functional assay. The source holds these as a separate data set.
The target is the same in assay [4]. The assay can be described thus: cell-based or functional assay. The source holds these as a separate data set.
In assay [5] the target is T3, nanodisc embedded human CACNG1 expressed with a C-terminal PADRE-Flag-His tag (human, UniProt Q06432 1-222).
T3 construct: Membrane protein (gamma-1 subunit of the skeletal muscle L-type calcium channel) in a nanodisc; also called human CACNG1 nanodisc; CACNG1 nanodisc; not shown: C-terminal PADRE-Flag-His tag
The assay can be described thus: SPR (Biacore T200), 25 C, anti-His-captured human CACNG1 nanodisc, antibody as analyte. The protocol: Equilibrium dissociation constants (KD values) for nanodisc embedded human CACNG1 expressed with a C-terminal PADRE-Flag-His tag (human CACNG1 nanodisc) binding to purified anti-hCACNG1 antibodies were determined using a real-time surface plasmon resonance biosensor technology with a Biacore T200 instrument. The CM5 Biacore sensor surface was derivatized by amine coupling with a monoclonal mouse anti-His antibody (Cytiva; Marlborough, MA). All Biacore binding studies were performed in a buffer composed of 0.01M HEPES, 0.15M NaCl, 1 mM CaCl₂), 0.5 mM MgCl₂, pH 7.4 (HBS-N++ running buffer). Different concentrations of anti-hCACNG1 antibodies (ranging from 300 nM to 12 nM in 5-fold serial dilutions) prepared in HBS-N++ running buffer were injected over the captured human CACNG1 nanodisc at a flow rate of 30 μL/minute. Antibody association was monitored for 2 minutes while dissociation was monitored in HBS-N++ running buffer for 5 minutes. At the end of each cycle, the human CACNG1 nanodisc capture surface was regenerated using three 10 second injections of 10 mM Gly pH1.5. All binding kinetics experiments were performed at 25° C.

T2 sequence (Q06432 whole entry): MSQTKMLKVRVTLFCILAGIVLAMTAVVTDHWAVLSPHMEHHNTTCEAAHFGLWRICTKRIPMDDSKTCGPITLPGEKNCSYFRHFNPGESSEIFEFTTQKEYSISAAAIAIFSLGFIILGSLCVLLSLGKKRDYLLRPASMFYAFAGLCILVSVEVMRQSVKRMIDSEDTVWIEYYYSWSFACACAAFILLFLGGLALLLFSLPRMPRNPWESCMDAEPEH
T3 sequence (Q06432 whole entry): as above

B1: H1M31941N (antibody, mouse IgG1, kappa, V domains shown)
VH: QVQLVQSGAEVKKPGASVKVSCKASGYAFTTYGITWVRQAPGQGLEWMGWISAYNGNTNYAEKVQGRFTMTTDTSTNTAYMELRSLRSDDTAVYFCARKGHYGSGTYYNPFGFDFWGQGTMVTVSS
VL: EIMLMQSPGTLSLSPGERATLSCRASQSVSSSYLAWYQQKPGQAPRLLIYGASSRATDIPDRFSGSGSGTDFTLTISRLEPEDFAVYFCQQYYGSPWTFGQGTKVEIKR
notes: also called antibody designation 8
Consider B1, for which the binding result in assay [1] was “no binding (tested: 100 nM)”.

B2: REGN5972-M3004 (antibody, V domains shown)
VH: QVQLVESGGGVVQPGRSLRLSCTASGFTFRSYGMHWVRQAPGKGLEWVSVIWIDGNNIYYADSVKGRFTISRDNSKNTLYLQMDSLRAEDTAVYYCARRLAITSAAPFDYWGQGTLVTVSS
VL: not shown
modifications: N180Q in the constant region (heading of the 2nd table, row 736); linker-payload M3004 (VC-PAB linker, DHT)
Regarding B2, the “EC50; androgen receptor luciferase reporter (RLU), hCACNG1.AR.Luc LNCaP cells, 48 hours” value in assay [2] was 6.49 nM. Also, in assay [3], the “EC50; androgen receptor luciferase reporter (RLU), hCACNG1.AR.Luc LNCaP cells, 24 hours” value was found to be 19 nM. In assay [4], the “EC50; androgen receptor luciferase reporter (RLU), hCACNG1.AR.Luc LNCaP cells, 72 hours” value turned out to be 7.79 nM.

B3: H4H31265P2/REGN5972 (antibody, V domains shown)
VH: QVQLVESGGGVVQPGRSLRLSCTASGFTFRSYGMHWVRQAPGKGLEWVSVIWIDGNNIYYADSVKGRFTISRDNSKNTLYLQMDSLRAEDTAVYYCARRLAITSAAPFDYWGQGTLVTVSS
VL: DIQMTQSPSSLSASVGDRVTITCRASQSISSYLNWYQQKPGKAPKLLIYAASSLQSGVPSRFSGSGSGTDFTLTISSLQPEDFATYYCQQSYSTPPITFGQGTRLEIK
notes: also called antibody designation 7
Turning to B3, in assay [1], the binding result is “no binding (tested: 100 nM)”. Moreover, the “mAb Bound at 300 nM (RU)” value in assay [5] is 14 RU.

The record behind these values is US20260234660A1 (Regeneron, published 2026).
